Source: patent US20070093443
Residue numbers refer to the chain shown, from its start. Names may count otherwise.

T1: Complement C4 (human)
T1 chain 1: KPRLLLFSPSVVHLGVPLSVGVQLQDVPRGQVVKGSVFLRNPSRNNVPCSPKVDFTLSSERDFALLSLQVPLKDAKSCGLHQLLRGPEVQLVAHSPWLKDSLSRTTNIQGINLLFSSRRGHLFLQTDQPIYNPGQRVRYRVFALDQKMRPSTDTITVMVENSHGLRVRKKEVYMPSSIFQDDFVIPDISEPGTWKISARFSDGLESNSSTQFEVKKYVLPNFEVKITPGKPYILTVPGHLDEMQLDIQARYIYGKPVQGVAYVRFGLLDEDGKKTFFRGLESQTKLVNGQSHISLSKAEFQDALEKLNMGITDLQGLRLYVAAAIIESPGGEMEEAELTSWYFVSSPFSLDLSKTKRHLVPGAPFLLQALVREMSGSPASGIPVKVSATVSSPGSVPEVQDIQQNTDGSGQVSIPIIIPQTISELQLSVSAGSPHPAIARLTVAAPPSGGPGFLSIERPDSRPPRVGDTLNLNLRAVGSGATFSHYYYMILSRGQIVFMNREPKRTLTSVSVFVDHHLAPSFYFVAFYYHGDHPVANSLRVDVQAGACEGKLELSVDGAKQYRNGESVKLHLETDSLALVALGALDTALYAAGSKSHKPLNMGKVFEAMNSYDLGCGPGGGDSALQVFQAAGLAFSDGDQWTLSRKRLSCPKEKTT
T1 chain 2: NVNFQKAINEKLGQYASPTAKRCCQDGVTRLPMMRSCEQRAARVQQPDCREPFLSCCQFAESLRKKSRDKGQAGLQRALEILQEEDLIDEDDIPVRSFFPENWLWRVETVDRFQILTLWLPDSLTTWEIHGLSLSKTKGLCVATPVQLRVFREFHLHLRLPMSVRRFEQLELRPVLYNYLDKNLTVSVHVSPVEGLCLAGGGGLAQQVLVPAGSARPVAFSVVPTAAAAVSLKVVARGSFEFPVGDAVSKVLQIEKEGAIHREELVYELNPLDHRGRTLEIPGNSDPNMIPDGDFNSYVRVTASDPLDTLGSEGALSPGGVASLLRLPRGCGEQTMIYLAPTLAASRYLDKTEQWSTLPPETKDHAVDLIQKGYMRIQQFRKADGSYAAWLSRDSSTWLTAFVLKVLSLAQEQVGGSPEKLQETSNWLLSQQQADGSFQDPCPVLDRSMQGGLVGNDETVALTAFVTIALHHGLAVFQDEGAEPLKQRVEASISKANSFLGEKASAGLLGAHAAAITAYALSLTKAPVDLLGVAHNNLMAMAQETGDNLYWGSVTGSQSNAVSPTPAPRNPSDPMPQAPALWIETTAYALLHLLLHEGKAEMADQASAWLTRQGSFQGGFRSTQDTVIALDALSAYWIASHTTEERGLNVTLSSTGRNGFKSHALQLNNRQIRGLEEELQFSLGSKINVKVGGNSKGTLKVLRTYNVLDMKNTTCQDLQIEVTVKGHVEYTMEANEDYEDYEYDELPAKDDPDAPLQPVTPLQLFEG
T1 chain 3: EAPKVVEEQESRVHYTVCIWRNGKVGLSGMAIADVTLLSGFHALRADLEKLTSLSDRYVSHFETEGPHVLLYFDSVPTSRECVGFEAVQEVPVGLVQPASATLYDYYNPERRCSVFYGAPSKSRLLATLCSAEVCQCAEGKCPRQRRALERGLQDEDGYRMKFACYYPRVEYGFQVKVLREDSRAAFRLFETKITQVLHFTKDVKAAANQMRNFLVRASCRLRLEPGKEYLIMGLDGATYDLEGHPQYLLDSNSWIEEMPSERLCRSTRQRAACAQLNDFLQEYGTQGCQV

T2: Ac-GLAR-AMC
T2 chain: GLAR

T3: Ac-RQAR-AMC
T3 chain: RQAR

T4: Ac-SLGR-AMC
T4 chain: SLGR

T5: Complement C2 (human)
T5 chain: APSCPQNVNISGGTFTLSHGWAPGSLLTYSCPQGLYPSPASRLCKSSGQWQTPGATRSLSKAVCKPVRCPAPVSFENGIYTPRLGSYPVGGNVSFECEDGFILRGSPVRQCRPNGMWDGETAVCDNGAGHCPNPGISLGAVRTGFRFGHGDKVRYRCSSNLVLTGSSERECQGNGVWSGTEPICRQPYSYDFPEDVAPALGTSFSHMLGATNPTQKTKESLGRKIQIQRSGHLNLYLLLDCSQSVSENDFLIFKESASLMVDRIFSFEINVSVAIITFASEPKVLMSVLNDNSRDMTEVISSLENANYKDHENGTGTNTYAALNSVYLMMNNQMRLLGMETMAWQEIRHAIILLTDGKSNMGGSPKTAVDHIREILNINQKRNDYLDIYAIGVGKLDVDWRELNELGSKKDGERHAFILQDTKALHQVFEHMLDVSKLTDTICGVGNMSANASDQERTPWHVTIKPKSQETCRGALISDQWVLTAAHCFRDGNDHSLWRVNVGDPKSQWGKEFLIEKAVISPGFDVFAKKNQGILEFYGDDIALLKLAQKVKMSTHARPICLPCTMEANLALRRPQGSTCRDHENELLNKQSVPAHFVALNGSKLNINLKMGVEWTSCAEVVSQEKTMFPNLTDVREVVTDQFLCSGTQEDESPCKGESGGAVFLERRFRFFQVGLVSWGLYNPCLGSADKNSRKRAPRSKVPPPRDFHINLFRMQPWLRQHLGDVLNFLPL

B1: wildtype MT-SP1 protease domain (CB200) (protein)
chain: VVGGTDADEGEWPWQVSLHALGQGHICGASLISPNWLVSAAHCYIDDRGFRYSDPTQWTAFLGLHDQSQRSAPGVQERRLKRIISHPFFNDFTFDYDIALLELEKPAEYSSMVRPICLPDASHVFPAGKAIWVTGWGHTQYGGTGALILQKGEIRVINQTTCENLLPQQITPRMMCVGFLSGGVDSCQGDSGGPLSSVEADGRIFQAGVVSWGDGCAQRNKPGVYTRLPLFRDWIKENTGV
B2: modified MT-SP1 CB349 (I41D/Y146D/K224F) protease domain (protein)
chain: B1 chain with I26D, Y141D, K221F
B3: modified MT-SP1 CB42 (Y146E) protease domain (protein)
chain: B1 chain with F92W, Y141E
B4: modified MT-SP1 CB155 (Y146D/K224F) protease domain (protein)
chain: B1 chain with Y141D, K221F
B5: modified MT-SP1 CB331 (I41D/Y146D/K224L) protease domain (protein)
chain: B1 chain with I26D, Y141D, K221L
B6: modified MT-SP1 CB387 (Y146D/Q175W/K224L) protease domain (protein)
chain: B1 chain with Y141D, Q169W, K221L

Experiments:
Complement C4 (human) = molecular target: T1, Complement C4 (human)
Ac-GLAR-AMC = molecular target: T2, Ac-GLAR-AMC
Ac-RQAR-AMC = molecular target: T3, Ac-RQAR-AMC
Ac-SLGR-AMC = molecular target: T4, Ac-SLGR-AMC
[1] = molecular target: Complement component C9 (human)
[2] = molecular target: Complement component C6 (human)
[3] = molecular target: Complement component C7 (human)
Complement C2 (human) = molecular target: T5, Complement C2 (human)
[4] = molecular target: Complement component C8 (human)

Sequence of Complement C5 (human) (chain, as listed by the source, chain 1 of 2): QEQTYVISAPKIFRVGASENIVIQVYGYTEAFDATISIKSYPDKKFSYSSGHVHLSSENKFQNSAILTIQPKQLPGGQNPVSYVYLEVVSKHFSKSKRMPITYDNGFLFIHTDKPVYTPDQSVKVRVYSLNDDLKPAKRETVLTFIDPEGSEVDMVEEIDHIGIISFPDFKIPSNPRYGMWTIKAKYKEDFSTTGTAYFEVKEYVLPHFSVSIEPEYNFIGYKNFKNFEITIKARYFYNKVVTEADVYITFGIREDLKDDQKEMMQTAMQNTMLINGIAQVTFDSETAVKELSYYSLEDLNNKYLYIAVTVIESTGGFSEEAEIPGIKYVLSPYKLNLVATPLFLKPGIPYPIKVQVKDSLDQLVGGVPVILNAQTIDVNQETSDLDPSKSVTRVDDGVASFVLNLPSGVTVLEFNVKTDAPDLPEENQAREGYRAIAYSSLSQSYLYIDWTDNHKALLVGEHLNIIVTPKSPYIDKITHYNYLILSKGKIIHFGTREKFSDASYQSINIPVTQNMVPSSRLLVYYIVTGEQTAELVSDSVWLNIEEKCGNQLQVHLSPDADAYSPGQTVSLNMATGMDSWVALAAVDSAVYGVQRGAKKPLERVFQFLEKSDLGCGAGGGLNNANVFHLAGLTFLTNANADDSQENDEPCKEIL
Sequence of Complement C5 (human) (chain, as listed by the source, chain 2 of 2): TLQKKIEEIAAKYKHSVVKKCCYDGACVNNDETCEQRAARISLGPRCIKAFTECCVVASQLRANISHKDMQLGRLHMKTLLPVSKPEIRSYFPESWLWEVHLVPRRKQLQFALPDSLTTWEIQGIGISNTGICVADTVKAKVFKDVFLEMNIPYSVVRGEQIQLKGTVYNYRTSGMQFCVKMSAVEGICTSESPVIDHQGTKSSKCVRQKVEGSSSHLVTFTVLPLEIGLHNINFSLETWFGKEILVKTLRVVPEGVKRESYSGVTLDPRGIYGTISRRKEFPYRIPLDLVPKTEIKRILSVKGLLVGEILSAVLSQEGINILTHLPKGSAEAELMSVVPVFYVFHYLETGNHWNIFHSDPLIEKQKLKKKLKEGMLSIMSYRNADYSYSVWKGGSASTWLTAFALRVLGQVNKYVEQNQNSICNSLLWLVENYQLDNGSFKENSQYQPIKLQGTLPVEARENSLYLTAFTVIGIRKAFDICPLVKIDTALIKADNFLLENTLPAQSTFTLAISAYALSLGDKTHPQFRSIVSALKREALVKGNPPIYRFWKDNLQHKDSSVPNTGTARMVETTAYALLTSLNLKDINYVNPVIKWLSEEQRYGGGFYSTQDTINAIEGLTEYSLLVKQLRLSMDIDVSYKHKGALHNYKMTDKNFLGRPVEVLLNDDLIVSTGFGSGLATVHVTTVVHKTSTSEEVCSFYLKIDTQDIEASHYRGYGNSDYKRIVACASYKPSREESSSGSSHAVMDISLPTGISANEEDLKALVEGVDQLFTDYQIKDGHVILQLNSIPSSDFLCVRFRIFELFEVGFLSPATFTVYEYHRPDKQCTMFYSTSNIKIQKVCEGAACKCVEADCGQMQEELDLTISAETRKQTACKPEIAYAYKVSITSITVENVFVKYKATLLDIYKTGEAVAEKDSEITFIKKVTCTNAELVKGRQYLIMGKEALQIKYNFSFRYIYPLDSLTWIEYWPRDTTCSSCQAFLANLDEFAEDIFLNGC
Sequence of Complement component C6 (human) (chain, as listed by the source): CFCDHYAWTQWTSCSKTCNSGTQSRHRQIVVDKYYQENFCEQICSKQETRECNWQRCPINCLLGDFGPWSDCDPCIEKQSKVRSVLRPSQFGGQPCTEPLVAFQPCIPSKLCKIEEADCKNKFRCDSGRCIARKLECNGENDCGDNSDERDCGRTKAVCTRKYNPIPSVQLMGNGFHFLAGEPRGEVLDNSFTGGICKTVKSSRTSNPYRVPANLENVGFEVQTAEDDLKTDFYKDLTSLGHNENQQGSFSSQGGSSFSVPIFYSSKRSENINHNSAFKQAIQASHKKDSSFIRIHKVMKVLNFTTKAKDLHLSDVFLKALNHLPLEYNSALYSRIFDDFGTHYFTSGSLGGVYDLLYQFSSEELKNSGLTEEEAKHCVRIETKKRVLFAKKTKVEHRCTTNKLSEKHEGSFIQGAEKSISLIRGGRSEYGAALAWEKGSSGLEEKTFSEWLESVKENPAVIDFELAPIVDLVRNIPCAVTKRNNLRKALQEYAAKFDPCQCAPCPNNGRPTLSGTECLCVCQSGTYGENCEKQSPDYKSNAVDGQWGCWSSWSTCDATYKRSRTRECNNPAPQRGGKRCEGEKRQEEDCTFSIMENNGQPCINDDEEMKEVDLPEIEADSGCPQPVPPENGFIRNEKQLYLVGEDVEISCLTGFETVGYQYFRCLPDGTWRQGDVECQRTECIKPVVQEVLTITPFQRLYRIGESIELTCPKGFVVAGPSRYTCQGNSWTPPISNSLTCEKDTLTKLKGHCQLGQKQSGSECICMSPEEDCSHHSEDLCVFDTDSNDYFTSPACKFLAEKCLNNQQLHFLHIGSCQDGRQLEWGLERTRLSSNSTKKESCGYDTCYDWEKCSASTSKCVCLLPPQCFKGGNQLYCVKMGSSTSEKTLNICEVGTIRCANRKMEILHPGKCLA
Sequence of Complement component C7 (human) (chain, as listed by the source): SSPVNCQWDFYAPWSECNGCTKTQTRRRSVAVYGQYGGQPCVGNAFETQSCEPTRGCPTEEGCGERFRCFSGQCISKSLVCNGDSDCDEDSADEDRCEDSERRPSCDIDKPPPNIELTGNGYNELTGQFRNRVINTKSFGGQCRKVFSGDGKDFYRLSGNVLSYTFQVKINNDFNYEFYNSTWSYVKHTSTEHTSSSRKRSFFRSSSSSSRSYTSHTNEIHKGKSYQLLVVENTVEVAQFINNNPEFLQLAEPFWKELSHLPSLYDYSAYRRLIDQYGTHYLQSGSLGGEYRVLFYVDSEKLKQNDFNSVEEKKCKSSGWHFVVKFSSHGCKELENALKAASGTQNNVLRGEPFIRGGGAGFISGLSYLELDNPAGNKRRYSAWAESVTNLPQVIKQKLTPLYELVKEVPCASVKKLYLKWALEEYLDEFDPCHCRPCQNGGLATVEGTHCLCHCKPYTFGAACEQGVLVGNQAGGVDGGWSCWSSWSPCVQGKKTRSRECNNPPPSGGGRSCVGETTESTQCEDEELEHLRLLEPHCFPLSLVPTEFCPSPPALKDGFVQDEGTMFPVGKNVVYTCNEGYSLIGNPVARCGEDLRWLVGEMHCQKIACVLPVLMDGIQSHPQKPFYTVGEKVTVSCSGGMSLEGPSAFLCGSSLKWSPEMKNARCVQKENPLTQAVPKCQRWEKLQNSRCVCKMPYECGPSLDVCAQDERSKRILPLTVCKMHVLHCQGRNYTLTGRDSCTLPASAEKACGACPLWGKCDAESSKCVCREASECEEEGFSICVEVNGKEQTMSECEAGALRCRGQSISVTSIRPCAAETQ
Sequence of Complement component C9 (human) (chain, as listed by the source): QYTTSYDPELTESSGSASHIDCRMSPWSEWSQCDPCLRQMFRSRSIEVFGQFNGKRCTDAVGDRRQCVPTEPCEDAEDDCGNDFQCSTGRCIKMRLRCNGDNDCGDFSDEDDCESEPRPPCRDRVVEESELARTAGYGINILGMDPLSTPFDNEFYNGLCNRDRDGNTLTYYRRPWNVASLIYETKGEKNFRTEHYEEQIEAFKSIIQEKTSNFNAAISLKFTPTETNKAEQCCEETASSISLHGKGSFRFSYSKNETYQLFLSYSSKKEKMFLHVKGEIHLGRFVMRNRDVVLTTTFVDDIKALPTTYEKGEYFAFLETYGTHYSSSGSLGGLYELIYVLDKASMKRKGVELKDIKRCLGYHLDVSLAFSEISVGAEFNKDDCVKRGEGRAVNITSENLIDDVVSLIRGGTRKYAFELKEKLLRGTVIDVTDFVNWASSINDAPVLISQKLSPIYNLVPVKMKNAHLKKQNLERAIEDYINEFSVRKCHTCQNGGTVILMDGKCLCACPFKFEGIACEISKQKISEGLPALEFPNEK

Row | Protein | Fraction of Hemolysis (protease-incubated purified complement protein added back to depleted sera) (Complement C4 (human)) | Fraction of Hemolysis (protease-incubated purified complement protein added back to depleted sera) (Complement C5 (human)) | kcat/Km (specificity constant), fluorogenic peptide cleavage (Ac-GLAR-AMC) | kcat/Km (specificity constant), fluorogenic peptide cleavage (Ac-RQAR-AMC) | kcat/Km (specificity constant), fluorogenic peptide cleavage (Ac-SLGR-AMC) | Fraction of Hemolysis (protease-incubated purified complement protein added back to depleted sera) (Complement C3 (human)) | Fraction of Hemolysis (protease-incubated purified complement protein added back to depleted sera) (Complement C2 (human)) | kcat/Km (specificity constant) of cleavage of full length C2, in gel kinetics (SDS-PAGE densitometry time course) (Complement C2 (human)) | C3 Western blot of samples of the alternative hemolysis assay (human plasma) (Complement C3 (human)) | further results
1 | B1 | 0.97 | 0.888 | 64000 M⁻¹ s⁻¹ | 1.9e+06 M⁻¹ s⁻¹ | 20000 M⁻¹ s⁻¹ | 0.00834 | 0 | 19500 M⁻¹ s⁻¹ | – | hemolysis (OD415) by protease-preincubated purified complement protein added back to the corresponding depleted sera (Complement C4 (human)): showed no decreased hemolysis as compared to normal sera or the no protease control; hemolysis (OD415) by protease-preincubated purified complement protein added back to the corresponding depleted sera (Complement C5 (human)): showed no decreased hemolysis as compared to normal sera or the no protease control; hemolysis (OD415) by protease-preincubated purified complement protein added back to the corresponding depleted sera [1]: showed no decreased hemolysis as compared to normal sera or the no protease control; hemolysis (OD415) by protease-preincubated purified complement protein added back to the corresponding depleted sera [2]: showed no decreased hemolysis as compared to normal sera or the no protease control; cleavage in 90% human plasma by Western blot (Complement C3 (human)): none of the tested proteases cleaved C3 in human plasma as compared to the no protease control even at the highest concentration of protease (2000 nM); hemolysis (OD415) by protease-preincubated purified complement protein added back to the corresponding depleted sera (Complement C3 (human)): showed no decreased hemolysis as compared to normal sera or the no protease control; hemolysis (OD415) by protease-preincubated purified complement protein added back to the corresponding depleted sera (Complement C1q (human)): showed no decreased hemolysis as compared to normal sera or the no protease control; hemolysis (OD415) by protease-preincubated purified complement protein added back to the corresponding depleted sera [3]: showed no decreased hemolysis as compared to normal sera or the no protease control; cleavage in 90% human plasma by Western blot (Complement C2 (human)): cleaved C2 in human plasma in a dose-dependent manner; fraction C5b-9 generated, Total Complement System Screen (classical and MBL pathways), 1 uM protease in human plasma (Complement C2 (human)): the fraction C5b-9 generated upon complement activation induced by the classical and MBL pathways was almost completely inhibited; hemolysis (OD415) by protease-preincubated purified complement protein added back to the corresponding depleted sera (Complement C2 (human)): resulted in an inhibition of hemolysis as assessed by a reduced OD415 absorbance to levels comparable to the depleted sera control; hemolysis (OD415) by protease-preincubated purified complement protein added back to the corresponding depleted sera [4]: showed no decreased hemolysis as compared to normal sera or the no protease control
2 | B2 | – | – | – | – | – | – | – | – | cleave C3 as assessed by decreased C3 product as compared to the no protease treated plasma sample | –
3 | B3 | 1.04 | 1.02 | 63000 M⁻¹ s⁻¹ | 1.8e+06 M⁻¹ s⁻¹ | 59000 M⁻¹ s⁻¹ | 0.122 | 0.0714 | 36000 M⁻¹ s⁻¹ | – | –
4 | B4 | 0.944 | 0.943 | 3500 M⁻¹ s⁻¹ | 91000 M⁻¹ s⁻¹ | 3700 M⁻¹ s⁻¹ | 0.072 | -0.00104 | 72000 M⁻¹ s⁻¹ | – | –
5 | B5 | – | – | – | – | – | – | – | – | cleave C3 as assessed by decreased C3 product as compared to the no protease treated plasma sample | –
6 | B6 | – | – | – | – | – | – | – | – | cleave C3 as assessed by decreased C3 product as compared to the no protease treated plasma sample | –
